Reference: paper PMC10825186, “A universal metabolite repair enzyme removes a strong inhibitor of the TCA cycle” (Nature Communications, 2024)
Where a chain is given by its changes, count along the chain named. In names and notes the source's numbering stands.

B1: Sc FMP41 (Saccharomyces cerevisiae S288C) (protein)
chain: MSYNYLKAARKIICIGRNYAAHIKELNNSTPKQPFFFLKPTSSIVTPLSSSLVKTTRPANSTFNGLNEDGTNPGPIFIPRGVKVHHEIELALIVSKHLSNVTKMKPEEVYDSISGVALALDLTARNVQDEAKKKGLPWTISKGFDTFMPISAIVSREKFSSYKSNLQDIFRVKCSVNGQLRQDGGTNLMLHPLHKILQHISTMISLEPGDIILTGTPAGVGELKPGDRVHCELLQNNDNIVDMNFECENRPGPYEFRET
B2: Ec YcgM (Escherichia coli K-12) (protein)
chain: MYQHHNWQGALLDYPVSKVVCVGSNYAKHIKEMGSAVPEEPVLFIKPETALCDLRQPLAIPSDFGSVHHEVELAVLIGATLRQATEEHVRKAIAGYGVALDLTLRDVQGKMKKAGQPWEKAKAFDNSCPLSGFIPAAEFTGDPQNTTLSLSVNGEQRQQGTTADMIHKIVPLIAYMSKFFTLKAGDVVLTGTPDGVGPLQSGDELTVTFDGHSLTTRVL
B3: Bs YisK (Bacillus subtilis subsp. subtilis str. 168) (protein)
chain: MKFATGELYNRMFVGLIIDDEKIMDLQKAEKKLFELETIPGSLIECIAEGDKFVAHARQLAEWAKKPNDELGSFMYSLSEVKLHAPIPKPSKNIICIGKNYRDHAIEMGSEADIPEHPMVFTKSPVTVTGHGDIVKSHEEVTSQLDYEGELAVVIGKSGTRISKEDAYDHVFGYTIVNDITARDLQKRHKQFFIGKSLDTTCPMGPVLVHKSSIQEPERLKVETRVNGELRQSGSASDMIFSIPELIETLSKGMTLEAGDIIATGTPSGVGKGFTPPKFLRSGDKIDITIDPIGTLSNQIG
B4: Bt FAHD2A (Bos taurus) (protein)
chain: ATQLPVLPRSEVTFLAPVTRPDKVVCVGMNYADHCREQNVPVPKEPIIFSKFASAIVGPYDNIILPPESQEVDWEVELAVVIGKRGKYIKATDAMAHVAGFTVAHDVSARDWQMGRNGKQWLLGKTFDTFCPLGPALVTKDSVADPHNLKICCRVNGEVMQSSNTNQMVFKTEELITWVSQFVTLYPGDIILTGTPPGVGVFRKPPVFLKKGDEVQCEIEELGVIINKVV
B5: Hs FAHD1 (Homo sapiens) (protein)
chain: MGIMAASRPLSRFWEWGKNIVCVGRNYADHVREMRSAVLSEPVLFLKPSTAYAPEGSPILMPAYTRNLHHELELGVVMGKRCRAVPEAAAMDYVGGYALCLDMTARDVQDECKKKGLPWTLAKSFTASCPVSAFVPKEKIPDPHKLKLWLKVNGELRQEGETSSMIFSIPYIISYVSKIITLEEGDIILTGTPKGVGPVKENDEIEAGIHGLVSMTFKVEKPEY
B6: Hs FAHD2A (Homo sapiens) (protein)
chain: AAQLPVLPRSEVTFLAPVTRPDKVVCVGMNYVDHCKEQNVPVPKEPIIFSKFASSIVGPYDEVVLPPQSQEVDWEVELAVVIGKKGKHIKATDAMAHVAGFTVAHDVSARDWQMRRNGKQWLLGKTFDTFCPLGPALVTKDSVADPHNLKICCRVNGEVVQSGNTNQMVFKTEDLIAWVSQFVTFYPGDVILTGTPPGVGVFRKPPVFLKKGDEVQCEIEELGVIINKVV
B7: Hs FAHD2B (Homo sapiens) (protein)
chain: B6 chain with R9W, R20W, Q113L, M114T, G163S

These molecules were tested on O=C(O)C=C(O)C(=O)O (assay: purified protein). Conditions: pH 7.5, 22 °C, 10 mM potassium phosphate, 0.3 mM NADH, malate dehydrogenase, OAA added in dry acetone.
B1 showed a Km of 219 ± 23 µM, a Vmax of 717 µmol/min/mg and a kcat of 369 s⁻¹. The kcat/Km was 1.75e+06 M⁻¹ s⁻¹. Molecule B2 has a Km of 26.9 ± 0.4 µM, a Vmax of 372 µmol/min/mg and a kcat of 161 s⁻¹. It also gave a kcat/Km of 5.95e+06 M⁻¹ s⁻¹. Molecule B3 has a Km of 43.8 ± 8.1 µM, a Vmax of 402 µmol/min/mg and a kcat of 237 s⁻¹. It also gave a kcat/Km of 5.81e+06 M⁻¹ s⁻¹. B4 showed a Km of 20.2 ± 1.4 µM, a Vmax of 53.5 µmol/min/mg and a kcat of 32.7 s⁻¹. The kcat/Km was 1.63e+06 M⁻¹ s⁻¹. For B5, the Km was 15.8 ± 5.9 µM, the Vmax was 69 µmol/min/mg and the kcat was 31.1 s⁻¹. The kcat/Km was 1.99e+06 M⁻¹ s⁻¹. Work on B6 yielded a Km of 22.2 ± 3.6 µM, a Vmax of 22.2 µmol/min/mg and a kcat of 13.6 s⁻¹. The kcat/Km was 628000 M⁻¹ s⁻¹. B7 showed a Km of 296 ± 12 µM, a Vmax of 112 µmol/min/mg and a kcat of 68.7 s⁻¹. For the same molecule, the kcat/Km was 232000 M⁻¹ s⁻¹.

These molecules were tested against T1, bovine succinate dehydrogenase (SDH) (Bos taurus, UniProt P31039) (assay: DCIP reduction at […] nm). Conditions: 2 mM malate, 0.1 mM decylubiquinone, GOT and glutamate, pH 7.1, 22 °C; product enol-OAA.
T1 construct: gene SDHA; native complex II, dodecyl-maltoside-solubilized and enriched from bovine heart submitochondrial particles; with Succinate dehydrogenase [ubiquinone] iron-sulfur subunit, mitochondrial; Succinate dehydrogenase cytochrome b560 subunit, mitochondrial; Succinate dehydrogenase [ubiquinone] cytochrome b small subunit, mitochondrial
T1 sequence (P31039 44-665): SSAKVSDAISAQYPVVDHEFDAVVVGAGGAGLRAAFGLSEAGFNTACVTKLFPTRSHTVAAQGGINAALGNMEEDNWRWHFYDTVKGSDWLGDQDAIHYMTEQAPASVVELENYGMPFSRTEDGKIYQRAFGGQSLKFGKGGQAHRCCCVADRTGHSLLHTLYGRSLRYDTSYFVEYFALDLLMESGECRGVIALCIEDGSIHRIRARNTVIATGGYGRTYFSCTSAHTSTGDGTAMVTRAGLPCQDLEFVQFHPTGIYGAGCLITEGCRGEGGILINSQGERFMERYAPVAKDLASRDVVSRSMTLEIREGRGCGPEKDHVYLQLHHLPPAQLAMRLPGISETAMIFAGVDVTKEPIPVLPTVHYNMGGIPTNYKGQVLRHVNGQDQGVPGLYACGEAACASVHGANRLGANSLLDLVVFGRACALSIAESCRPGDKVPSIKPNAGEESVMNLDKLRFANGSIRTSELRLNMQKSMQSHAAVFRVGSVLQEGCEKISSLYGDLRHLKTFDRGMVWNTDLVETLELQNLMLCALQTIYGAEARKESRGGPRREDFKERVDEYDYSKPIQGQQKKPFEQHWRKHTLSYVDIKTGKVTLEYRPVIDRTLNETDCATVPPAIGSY
T1 sequence (Q3T189 29-280 partner): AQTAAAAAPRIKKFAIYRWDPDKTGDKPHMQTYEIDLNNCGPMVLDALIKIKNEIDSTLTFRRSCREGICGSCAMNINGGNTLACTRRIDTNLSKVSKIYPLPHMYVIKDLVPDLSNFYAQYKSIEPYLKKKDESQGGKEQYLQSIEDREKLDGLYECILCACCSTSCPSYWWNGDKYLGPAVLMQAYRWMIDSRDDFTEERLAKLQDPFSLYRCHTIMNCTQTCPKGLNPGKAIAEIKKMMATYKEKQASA
T1 sequence (P35720 30-169 partner): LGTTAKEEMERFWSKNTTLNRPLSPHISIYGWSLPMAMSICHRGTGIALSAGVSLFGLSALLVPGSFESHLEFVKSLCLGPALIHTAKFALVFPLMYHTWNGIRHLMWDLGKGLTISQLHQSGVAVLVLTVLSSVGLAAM
T1 sequence (Q95123 56-158 partner): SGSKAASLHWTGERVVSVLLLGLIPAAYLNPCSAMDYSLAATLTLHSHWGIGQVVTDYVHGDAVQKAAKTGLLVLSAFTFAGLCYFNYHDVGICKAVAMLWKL
Assay type: biochemical
`O=C(O)C[C@H](O)C(=O)O` [malate] was tested, and the “DCIP reduction at 600 nm” value was “These results confirm that malate oxidation by SDH forms enol-OAA”.
